How the values were obtained:
[1] = system: chromatin strands from invasive HT1080 fibrosarcoma cells; assay: proteinase K treatment of isolated chromatin strands; type: biochemical, human; conditions: proteinase K 5 mg/ml, 5 minutes
Method: (§1) FIGS. 2D and 2E illustrate the effects of treatment of chromatin strands from normal human microvascular endothelial cells and invasive HT1080 fibrosarcoma cells with proteinase K under the conditions described above except that proteinase K (5 mg/ml) was substituted for ALU and the incubation time was reduced from 60 minutes to 5 minutes.

[2] = system: chromatin strands from normal human microvascular endothelial cells; assay: as above; type: biochemical; conditions: normal endothelial cell chromatin; proteinase K 5 mg/ml, 5 minutes
Method: as §1

chromatin strands = assay: degradation of chromatin strands with other endonucleases; type: biochemical; conditions: isolated chromatin strands

| Molecule | chromatin dispersion (FIGS. 2D, 2E) [1] | chromatin dispersion (FIGS. 2D, 2E) [2] | correlation of chromatin cleavage pattern with invasive potential of the cell (chromatin strands) |
| --- | --- | --- | --- |
| proteinase K: protease proteinase K, chromatin modifying agent (protein, UniProt P06873 106-384, looked up) Proteinase K: AAQTNAPWGLARISSTSPGTSTYYYDESAGQGSCVYVIDTGIEASHPEFEGRAQMVKTYYYSSRDGNGHGTHCAGTVGSRTYGVAKKTQLFGVKVLDDNGSGQYSTIIAGMDFVASDKNNRNCPKGVVASLSLGGGYSSSVNSAAARLQSSGVMVAVAAGNNNADARNYSPASEPSVCTVGASDRYDRRSSFSNYGSVLDIFGPGTSILSTWIGGSTRSISGTSMATPHVAGLAAYLMTLGKTTAASACRYIADTANKGDLSNIPFGTVNLLAYNNYQA | extensively dispersed | remained largely intact | – |
| RNase A: nuclease (protein, UniProt P61823 27-150, looked up) Ribonuclease pancreatic: KETAAAKFERQHMDSSTSAASSSNYCNQMMKSRNLTKDRCKPVNTFVHESLADVQAVCSQKNVACKNGQTNCYQSYSTMSITDCRETGSSKYPNCAYKTTQANKHIIVACEGNPYVPVHFDASV | – | – | does not exhibit chromatin cleavage patterns that correlate with the invasive potential |

Source: patent US20050079516A1, “Chromosome stability assay” (The Board of Trustees of the University of Illinois, priority 2003, published 2005)
